Results on five molecules are retold here after patent publication US20260193348A1.

B1: Bis-108-H3L4 (bispecific antibody, not shown: a dimerising Fc or GST)
heavy: EVQLVQSGAEVKKPGASVKVSCKASGYTFTSYVIHWVRQAPGQGLEWMGYFNPYNDGTKYNEEFKGRVTLTSDKSTSTAYMELRSLRSDDTAVYYCARGGVRRYFDVWGQGTTVTVSS
heavy (part 1 of 2): EVQLVQSGAEVKKPGASVKVSCKASGYTFTSYVIHWVRQAPGQGLEWMGYFNPYNDGTKYNEEFKGRVTLTSDKSTSTAYMELRSLRSDDTAVYYCARGGVRRYFDVWGQGTTVTVSS
heavy (part 2 of 2): GGGGSGGGGSEVQLVESGGGLVQPGGSLRLSCAASGFTFNTYAMNWVRQAPGKGLEWVARIRSKYNNYATYYAASVKGRFTISRDDSKNSLYLQMNSLKTEDTAVYYCARHGNFGNSYVSWFAYWGQGTLVTVSSGGGGSGGGGSGGGGSGGGGSQTVVTQEPSLTVSPGGTVTLTCRSSTGAVTTSNYANWVQQKPGQAPRGLIGGTNKRAPGTPARFSGSLLGGKAALTLSGVQPEDEAEYYCALWYSNLWVFGGGTKLTVLGGGGSGGGGS
light: DIQMTQSPSSLSASVGDRVTITCRASQDIGSNLNWLQQKPGKAIKRLIYATFGLDSGVPSRFSGSRSGTDFTLTISSLQPEDFATYYCQQYASFPYTFGGGTKVEIK
B2: Bis-108-H2L4 (bispecific antibody, not shown: a dimerising Fc or GST)
heavy: EVQLVQSGAEVKKPGASVKVSCKASGYTFTSYVIHWVRQAPGQGLEWIGYFNPYNDGTKYNEEFKGRATMTTDTSTSTAYMELRSLRSDDTAVYYCARGGVRRYFDVWGQGTTVTVSS
heavy (part 1 of 2): EVQLVQSGAEVKKPGASVKVSCKASGYTFTSYVIHWVRQAPGQGLEWIGYFNPYNDGTKYNEEFKGRATMTTDTSTSTAYMELRSLRSDDTAVYYCARGGVRRYFDVWGQGTTVTVSS
heavy (part 2 of 2): GGGGSGGGGSEVQLVESGGGLVQPGGSLRLSCAASGFTFNTYAMNWVRQAPGKGLEWVARIRSKYNNYATYYAASVKGRFTISRDDSKNSLYLQMNSLKTEDTAVYYCARHGNFGNSYVSWFAYWGQGTLVTVSSGGGGSGGGGSGGGGSGGGGSQTVVTQEPSLTVSPGGTVTLTCRSSTGAVTTSNYANWVQQKPGQAPRGLIGGTNKRAPGTPARFSGSLLGGKAALTLSGVQPEDEAEYYCALWYSNLWVFGGGTKLTVLGGGGSGGGGS
light: DIQMTQSPSSLSASVGDRVTITCRASQDIGSNLNWLQQKPGKAIKRLIYATFGLDSGVPSRFSGSRSGTDFTLTISSLQPEDFATYYCQQYASFPYTFGGGTKVEIK
B3: ATG-Bis-108 (bispecific antibody, not shown: a dimerising Fc or GST)
heavy: EVQLQQSGPELVKPGASVKMSCKASGYTFTSYVIHWVKQKTGQGLEWIGYFNPYNDGTKYNEEFKGKATLTSDKSSNTAYMELNSLTSDDSAVYFCARGGVRRYFDVWGAGTTVTVSS
heavy (part 1 of 2): EVQLQQSGPELVKPGASVKMSCKASGYTFTSYVIHWVKQKTGQGLEWIGYFNPYNDGTKYNEEFKGKATLTSDKSSNTAYMELNSLTSDDSAVYFCARGGVRRYFDVWGAGTTVTVSS
heavy (part 2 of 2): GGGGSGGGGSEVQLVESGGGLVQPGGSLRLSCAASGFTFNTYAMNWVRQAPGKGLEWVARIRSKYNNYATYYAASVKGRFTISRDDSKNSLYLQMNSLKTEDTAVYYCARHGNFGNSYVSWFAYWGQGTLVTVSSGGGGSGGGGSGGGGSGGGGSQTVVTQEPSLTVSPGGTVTLTCRSSTGAVTTSNYANWVQQKPGQAPRGLIGGTNKRAPGTPARFSGSLLGGKAALTLSGVQPEDEAEYYCALWYSNLWVFGGGTKLTVLGGGGSGGGGS
light: DIQMTQSPSSLSASLGERVSLTCRASQDIGSNLNWLQQEPDGTIKRLIYATFGLDSGVPKRFSGSRSGSDYSLTISSLESEDFVDYYCQQYASFPYTFGGGTKLEIK
B4: Bis-108-H1L4 (bispecific antibody, not shown: a dimerising Fc or GST)
heavy: EVQLVQSGAEVKKPGASVKVSCKASGYTFTSYVIHWVRQAPGQGLEWMGYFNPYNDGTKYNEEFKGRVTMTTDTSTSTAYMELRSLRSDDTAVYYCARGGVRRYFDVWGQGTTVTVSS
heavy (part 1 of 2): EVQLVQSGAEVKKPGASVKVSCKASGYTFTSYVIHWVRQAPGQGLEWMGYFNPYNDGTKYNEEFKGRVTMTTDTSTSTAYMELRSLRSDDTAVYYCARGGVRRYFDVWGQGTTVTVSS
heavy (part 2 of 2): GGGGSGGGGSEVQLVESGGGLVQPGGSLRLSCAASGFTFNTYAMNWVRQAPGKGLEWVARIRSKYNNYATYYAASVKGRFTISRDDSKNSLYLQMNSLKTEDTAVYYCARHGNFGNSYVSWFAYWGQGTLVTVSSGGGGSGGGGSGGGGSGGGGSQTVVTQEPSLTVSPGGTVTLTCRSSTGAVTTSNYANWVQQKPGQAPRGLIGGTNKRAPGTPARFSGSLLGGKAALTLSGVQPEDEAEYYCALWYSNLWVFGGGTKLTVLGGGGSGGGGS
light: DIQMTQSPSSLSASVGDRVTITCRASQDIGSNLNWLQQKPGKAIKRLIYATFGLDSGVPSRFSGSRSGTDFTLTISSLQPEDFATYYCQQYASFPYTFGGGTKVEIK
B5: Bis-108-H5L3 (bispecific antibody, not shown: a dimerising Fc or GST)
heavy: EVQLVQSGAEVKKPGASVKVSCKASGYTFTSYVIHWVKQAPGQGLEWIGYFNPYNDGTKYNEEFKGKATLTTDKSTSTAYMELRSLRSDDTAVYYCARGGVRRYFDVWGQGTTVTVSS
heavy (part 1 of 2): EVQLVQSGAEVKKPGASVKVSCKASGYTFTSYVIHWVKQAPGQGLEWIGYFNPYNDGTKYNEEFKGKATLTTDKSTSTAYMELRSLRSDDTAVYYCARGGVRRYFDVWGQGTTVTVSS
heavy (part 2 of 2): GGGGSGGGGSEVQLVESGGGLVQPGGSLRLSCAASGFTFNTYAMNWVRQAPGKGLEWVARIRSKYNNYATYYAASVKGRFTISRDDSKNSLYLQMNSLKTEDTAVYYCARHGNFGNSYVSWFAYWGQGTLVTVSSGGGGSGGGGSGGGGSGGGGSQTVVTQEPSLTVSPGGTVTLTCRSSTGAVTTSNYANWVQQKPGQAPRGLIGGTNKRAPGTPARFSGSLLGGKAALTLSGVQPEDEAEYYCALWYSNLWVFGGGTKLTVLGGGGSGGGGS
light: DIQMTQSPSSLSASVGDRVTITCRASQDIGSNLNWLQQKPGKAIKRLIYATFGLDSGVPSRFSGSGSGTDYTLTISSLQPEDFATYYCQQYASFPYTFGGGTKVEIK

GPRC5D (G-protein coupled receptor family C group 5 member D), human, on multiple myeloma cell lines (human), sequence (Q9NZD1 whole entry): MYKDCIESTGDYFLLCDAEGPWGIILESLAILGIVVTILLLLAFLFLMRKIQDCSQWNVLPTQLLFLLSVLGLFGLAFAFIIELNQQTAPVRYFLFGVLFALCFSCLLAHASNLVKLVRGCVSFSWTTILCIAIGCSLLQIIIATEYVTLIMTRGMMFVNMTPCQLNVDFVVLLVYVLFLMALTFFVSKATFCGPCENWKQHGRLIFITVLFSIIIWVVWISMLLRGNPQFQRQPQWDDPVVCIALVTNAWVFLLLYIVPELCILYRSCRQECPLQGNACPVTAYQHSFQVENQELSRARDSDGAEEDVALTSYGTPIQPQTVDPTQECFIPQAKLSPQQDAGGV

The experiment has as its target GPRC5D (G-protein coupled receptor family C group 5 member D), human, on multiple myeloma cell lines (human) (UniProt Q9NZD1). The experiment is described as follows: cell-based or functional assay.
B1 showed an IC50 (nM), T-Cell Dependent Cytotoxicity, MM.1S of 0.0496 nM and a Top (%), T-Cell Dependent Cytotoxicity, MM.1S of 72.4%.
In the same order, the values of B2 are 0.0934 nM and 74%.
Turning to B3, the IC50 (nM), T-Cell Dependent Cytotoxicity, MM.1S is 0.0871 nM and the Top (%), T-Cell Dependent Cytotoxicity, MM.1S is 77.2%.
As to B4, the IC50 (nM), T-Cell Dependent Cytotoxicity, MM.1S was 0.0597 nM and the Top (%), T-Cell Dependent Cytotoxicity, MM.1S turned out to be 75.5%.
On the same counts, the results for B5 are 0.0897 nM and 74.8%.
